US20240287172A1 (SCIRHOM, published 2024)
Changes are numbered by the printed parent chain.

B1: antibody 48 (antibody, V domains shown)
VH: QVQLQQSGTELVRPGTSVKVSCKASGYAFTNYLIEWVKQRPGQGLEWIGVINPGSGFTKYNEKFKGKATLTADKSSSTVYMHLSSLTSEDSAVYFCARGLYRAMDYWGQGTSVTVSS
VL: DIQMTQSPASQSASLGESVTITCLASQTIATWLAWYQQKPGKSPQLLIYGATTLADGVPSRFSGGGSGTKFSFKISSLQAEDFVSYYCQQLYSTPYTFGGGTKLEIK
notes: mouse IgG, kappa light chain; also called clone #48; purified antibody 48
B2: antibody 50 (antibody, V domains shown)
VH: B1 VH with T9A, T16A, T30S, V79A, H82Q
VL: B1 VL with A30G, G50A, T52A, T53S, S85N, L91I
notes: mouse IgG, kappa light chain; also called clone #50; purified antibody 50
B3: antibody 42 (antibody, V domains shown)
VH: QVTLKESGPGILQPSQTLSLTCSLSGFSLSTFGRGVGWIRQPSGKGLEWLAHIWWDDEKYYNPALKSRLTISKDTSKNQVFLRIANVDTADTATYYCARIQNYGSNYWYFDVWGTGTTVTVSS
VL: LIVLTQSPAIMSASPGEKVTMTCGATSRISYMFWYQQKPGSSPRVLIYDTSNLASGVPVRFSGSGSGTSYSLTISRVEAEDVATYYCQQWNSYPLTFGAGTKLELK
notes: mouse IgG, kappa light chain; also called clone #42; purified antibody 42

molecular target: T1, hiR2-FL-A560S-T7 (human, UniProt Q6PJF5 1-856); assay: FACS, MEF-DKO cells, 3 µg/ml
T1 sequence: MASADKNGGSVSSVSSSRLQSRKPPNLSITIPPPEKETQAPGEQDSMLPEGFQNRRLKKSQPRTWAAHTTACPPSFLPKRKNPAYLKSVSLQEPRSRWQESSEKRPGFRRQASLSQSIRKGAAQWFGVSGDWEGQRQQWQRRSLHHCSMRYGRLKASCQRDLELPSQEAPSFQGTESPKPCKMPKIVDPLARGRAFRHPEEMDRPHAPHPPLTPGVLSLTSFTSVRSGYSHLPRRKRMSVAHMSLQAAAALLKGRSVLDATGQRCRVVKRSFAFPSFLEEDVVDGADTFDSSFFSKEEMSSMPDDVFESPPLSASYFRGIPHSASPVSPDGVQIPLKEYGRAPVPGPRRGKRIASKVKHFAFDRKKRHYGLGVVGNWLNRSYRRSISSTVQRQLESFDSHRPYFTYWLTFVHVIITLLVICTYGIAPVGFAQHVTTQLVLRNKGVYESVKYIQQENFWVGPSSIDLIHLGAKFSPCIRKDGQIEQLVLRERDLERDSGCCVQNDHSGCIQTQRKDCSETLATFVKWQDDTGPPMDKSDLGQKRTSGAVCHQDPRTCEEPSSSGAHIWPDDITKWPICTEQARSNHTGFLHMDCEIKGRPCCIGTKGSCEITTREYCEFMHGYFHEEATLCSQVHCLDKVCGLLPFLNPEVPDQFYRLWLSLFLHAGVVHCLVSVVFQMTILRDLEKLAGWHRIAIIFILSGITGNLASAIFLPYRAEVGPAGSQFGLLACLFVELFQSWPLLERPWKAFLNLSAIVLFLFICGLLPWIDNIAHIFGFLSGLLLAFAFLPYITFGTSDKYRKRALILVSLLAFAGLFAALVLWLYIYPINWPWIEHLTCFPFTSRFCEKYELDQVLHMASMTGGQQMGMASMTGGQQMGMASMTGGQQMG

Row | Binder | loss of binding vs wild type
1 | B1 | ≥ 30%
2 | B2 | ≥ 30%
3 | B3 | ≥ 30%
